Among the data in the supplement of paper PMC10567573 are protein stability index values, retold here.

± gives the standard deviation.

This data set can be described thus: protein stability index of a GFP-peptide fusion (GPS, HEK-293T) (PSI 1-6); higher = more stable.
The mark [1] stands for this setting: treatment: DMSO, c terminus: a fixed tail appended.
The mark [2] stands for this setting: treatment: MLN4924 1 uM, 8 h, c terminus: a fixed tail appended.
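Also: 24-mer peptide tiles fused after GFP, lentivirally expressed, FACS-sorted into six equal bins by GFP/DsRed ratio, decoded by Illumina sequencing, PSI is the read-weighted mean bin number.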

Consider PASGEVEASQLRRLNIKKDDEFFH [TMEM40], for which the protein stability index runs as follows: under setting [1], 4.79 ± 0.1; under setting [2], 4.78 ± 0.25. The corresponding values for PEEPSAEDSINNSLVQLQASHQQQ [MYBL2] are 5.62 ± 0.18 and 5.55 ± 0.16.

Take PEVECLKANTNEVLWAVVAAFTK [GOLPH3]: the protein stability index runs as follows: (treatment: DMSO, c terminus: native) 2.17 ± 0.17; (treatment: MLN4924 1 uM, 8 h, c terminus: native) 2.25 ± 0.31. In the case of PFDGLLEERALLLGRMGKHEQALF [VPS39], the protein stability index under setting [1] was 2.59 ± 0.28 and the protein stability index under setting [2] turned out to be 2.67 ± 0.37. Take PGAGDPAPGIGPPEPWPGGCTGDE [MYCL]: the protein stability index worked out at 5.38 ± 0.057 under setting [1] and 5.16 ± 0.43 under setting [2].

On to PGVHRRYSALREESAKDWETSPLP [PPFIA4], for which the protein stability index is 4.04 ± 0.31 under setting [1] and 4.43 ± 0.27 under setting [2]. The corresponding values for PIVNISEVLGPLCLMLLMGTVHCQ [PHTF1] are 3.34 ± 0.24 and 3.17 ± 0.22. In the same order, the values of PKELSSFSFSMKGHEKTAKSKTRS [DLC1] are 4.73 ± 0.31 and 4.78 ± 0.21. The corresponding values for PLEAMYMQCPVIAVNSGGPLESID [ALG2] are 3.61 ± 0.33 and 3.86 ± 0.22. For the sequence PLGVLQAIAMYFLPPSPRFLVMKG [SLC2A12], the protein stability index by setting is: under setting [1], 2.64 ± 0.98; under setting [2], 2.88 ± 1.3. Take PLTSHILRAFVNSQIQGHKEMSKV [SNX8]: the protein stability index was 2.3 ± 0.36 under setting [1] and 2.21 ± 0.3 under setting [2]. In the same order, the values of PMPWLVLSEIFPGGIRGRAMALTS [SLC2A12] are 2.5 ± 0.16 and 2.33 ± 0.38. The corresponding values for PNGSAAEPPTEAASREENQAGPEA [PALM] are 5.56 ± 0.35 and 5.4 ± 0.25.

For PNIRNMAPNSLSAPTMLHNSSGDF [TRAF3IP2], the protein stability index turned out to be 4.16 ± 0.34 under setting [1] and 4.43 ± 0.19 under setting [2].

Consider PNNSCYSAGIAKLEEGDELQLAIP [TNFSF13B], for which the protein stability index by setting is: under setting [1], 4.55 ± 0.12; under setting [2], 4.59 ± 0.29. In the same order, the values of PPLPTYHVLLEGEGLGQSLGNFKD [TRIM29] are 3.8 ± 0.085 and 3.7 ± 0.14.

PPLTRQIAVKTLGIGKNVICDRTA [GFOD1] came in with a protein stability index under setting [1] of 3.71 ± 0.22 and a protein stability index under setting [2] of 3.92 ± 0.082.

The sequence PPNQQMSPSPMSHGHYSMHCLHSA [DLX1] yielded a protein stability index under setting [1] of 3.1 ± 0.31 and a protein stability index under setting [2] of 3.13 ± 0.15.

Consider PPSMVAAGSVVAAVQGLNLRSPNN [CCND1], for which the protein stability index is, setting by setting: under setting [1], 4.31 ± 0.17; under setting [2], 4.3 ± 0.26. The corresponding values for PPSRAPTAAPPPPPPSRPSVAVPP [WASL] are 4.77 ± 0.21 and 4.86 ± 0.21. As for PPTSPEPPRSSPRQTPAPGPAREK [CEBPD], the protein stability index under setting [2] is 5.62 ± 0.089. In the case of PQIPVDRGSETTYESSADIAGDEG [TAF7L], the protein stability index reads like this: under setting [1], 5.46 ± 0.22; under setting [2], 5.48 ± 0.32. In the same order, the values of PQKSYFIRLYGLQAGRLLWEQELY [WAS] are 2.28 ± 0.32 and 2.15 ± 0.19. The corresponding values for PRLIAKVEGKGNGIKTVIVNMVDV [EIF5] are 2.34 ± 0.41 and 2.37 ± 0.34. In the same order, the values of PSHYDVQDRFRIELSEEGAEGRVV [MOSPD3] are 4.63 ± 0.11 and 4.79 ± 0.33. For PSSLGPLLPLQREPLYNWQATKAS [BTBD1], the protein stability index turned out to be 3.36 ± 0.21 under setting [1] and 3.5 ± 0.14 under setting [2]. Take PSVMDPGAFETVLASAYTGRLSMA [ZBTB22]: the protein stability index by setting is: under setting [1], 2.3 ± 0.38; under setting [2], 2.3 ± 0.17.

In turn, PTPSTDAEYPANGSGADRIYDLNI [NCK2] returned a protein stability index under setting [1] of 4.69 ± 0.21 and a protein stability index under setting [2] of 4.71 ± 0.19.

The sequence PTTEPETEPEDDRGPVVPKHSTFG [GNAS] gave a protein stability index under setting [1] of 5.4 ± 0.18 and a protein stability index under setting [2] of 5.27 ± 0.42. The corresponding values for PTVTIEGFLQALSLAVDKQFEERK [TRIP13] are 2.29 ± 0.61 and 2.13 ± 0.44. In the same order, the values of PVGSCCSSPAGLSREYKLVMLGAG [RIT1] are 2.54 ± 0.44 and 2.24 ± 0.35. In the same order, the values of PVQPGMLIDVCKYLGSLQYRVWKK [TRIM35] are 2 ± 0.2 and 2.17 ± 0.29. On to PVRRIDGLTDVSQIITVTVQTGLD [IQUB], for which the protein stability index was 2.47 ± 0.45 under setting [1] and 2.45 ± 0.52 under setting [2].

PVVSAVWGHCEIRMRYLNGLDPEP [SPSB1] had a protein stability index under setting [1] of 2.14 ± 0.35 and a protein stability index under setting [2] of 1.98 ± 0.33.

The sequence QAHELAYDPNYMSPFAQFACDNGL [PPTC7] came in with a protein stability index under setting [1] of 3.32 ± 0.12 and a protein stability index under setting [2] of 3.13 ± 0.41.

Take QALSGTPKKGPAPSLSPGSSCVKY [TSPAN10]: the protein stability index is, setting by setting: under setting [1], 4.16 ± 0.059; under setting [2], 4.37 ± 0.22.

Consider QAPKSKSGSRPRKPPPRKHTRSWA [LRRC59], for which the protein stability index is 4.05 ± 0.21 under setting [1] and 4.15 ± 0.29 under setting [2].

Consider QAQIELRLLELMNQHDTEMKYYIV [DYRK1B], for which the protein stability index amounted to 2.24 ± 0.23 under setting [1] and 2.49 ± 0.47 under setting [2]. In the same order, the values of QAVVLCSKKTFQITKQGDGVDFLS [USP39] are 2.57 ± 0.18 and 2.77 ± 0.38. In the same order, the values of QCFFNGVFLGNKRSLSERTVDKCF [SPATS1] are 2.13 ± 0.25 and 2.34 ± 0.24.

Regarding QCIECGKSFNRHCNLIRHQKIHTV [ZSCAN9], the protein stability index by setting is: under setting [1], 3.37 ± 0.3; under setting [2], 3.36 ± 0.38. The corresponding values for QDFNTMFTNCYIYNKPTDDIVLMA [BRD3] are 2.12 ± 0.28 and 2.23 ± 0.25. In the same order, the values of QDPQLHSPFSGSLHAPPAFYSTSS [VENTX] are 3.65 ± 0.2 and 3.75 ± 0.28. In the case of QDVTVVGSAGRLLAVGTDLYGQRN [GFOD1], the protein stability index was found to be 3.4 ± 0.26 under setting [1] and 3.63 ± 0.32 under setting [2]. The corresponding values for QELQIDDNEYAYLKAIIFFDPDAK [HNF4A] are 2.53 ± 0.22 and 2.72 ± 0.21.

Regarding QFGIKDVFDNAIRAALISRRHLQF [RHOBTB1], the protein stability index reads like this: under setting [1], 2.62 ± 0.38; under setting [2], 2.59 ± 0.46. On to QFGLLSFFFAVLHAIYSLSYPMRR [STEAP1], for which the protein stability index was 3.28 ± 1 under setting [1] and 2.058 ± 0.016 under setting [2]. QFGQDGPISVHCSAGVGRTGVFIT [PTPRD]: the protein stability index is 2.46 ± 0.48 under setting [1] and 2.15 ± 0.22 under setting [2]. In the same order, the values of QFISRFLEGQSGVTIKHVACGDFF [NEK8] are 2.51 ± 0.47 and 2.39 ± 0.37. In the same order, the values of QFLNDRLASYLEKVRQLERDNAEL [KRT33B] are 3.18 ± 0.18 and 3.33 ± 0.28.

With QGGKDFNVPLSISRLTPGGKAAQA [PDLIM7], the protein stability index was determined as 4.23 ± 0.26 under setting [1] and 4.35 ± 0.15 under setting [2]. As for QGTTVPAHRAILVARCEVMAAMFN [RHOBTB3], the protein stability index under setting [1] stood at 2.1 ± 0.18 and the protein stability index under setting [2] was found to be 2.17 ± 0.097. In the same order, the values of QKAGVTRSGRLILWEAPPLGAGGG [NEK8] are 3.31 ± 0.29 and 2.95 ± 0.32. On to QLEKPKPVKPVTFSTGIKMGQHIS [MNAT1], for which the protein stability index under setting [1] was determined as 3.36 ± 0.15 and the protein stability index under setting [2] stood at 3.44 ± 0.41. Take QLERPLPLTSVCYPQDLPRPLRSR [TRAF3IP2]: the protein stability index runs as follows: under setting [1], 4.05 ± 0.21; under setting [2], 4.1 ± 0.24. In the same order, the values of QLRNCLRILMGELSNHHDHHDEFC [BEX3] are 2.28 ± 0.41 and 2.21 ± 0.12. In the same order, the values of QQQIHHIKNLYAFNLFCQKRFDES [VPS39] are 2.29 ± 0.11 and 2.42 ± 0.15. Regarding QRNGLVFIYDMCGSNYANFELDLG [PTPN9], the protein stability index is, setting by setting: under setting [1], 2.84 ± 0.23; under setting [2], 2.37 ± 0.57. The corresponding values for QRRPRVLSCLHSVCEQCLQILYES [RNF208] are 2.32 ± 0.17 and 2.64 ± 0.54. With QRRTEASRNAADKERAAGGGAGSS [GOLPH3], the protein stability index runs as follows: under setting [1], 5.54 ± 0.23; under setting [2], 5.36 ± 0.15. In the same order, the values of QRVPKVLVENAKNFPQCVLEISDQ [EFHC1] are 3.49 ± 0.19 and 3.81 ± 0.29. Consider QRYEHGRTLKSYLGLTNQSRRYNR [ZNF649], for which the protein stability index under setting [1] worked out at 3.39 ± 0.21 and the protein stability index under setting [2] turned out to be 3.59 ± 0.29. The corresponding values for QSSGKILLCPLCQEEEQAETPMAP [TRIM15] are 3.79 ± 0.36 and 4.28 ± 0.31. In the same order, the values of QSYPSQDKPLPPPPPGSLSRTQEP [SOAT2] are 5.2 ± 0.41 and 5.08 ± 0.24. In the same order, the values of QTIQKTTTRRIVDGKVVSETNDTK [KRT18] are 5.34 ± 0.19 and 5.31 ± 0.23. Turning to QTSAFARQPRDELERVRVSCTIIF [TMEM175], the protein stability index under setting [1] was found to be 2.46 ± 0.55 and the protein stability index under setting [2] amounted to 2.62 ± 0.61. In the same order, the values of QVLFDKVCEHLNLLEKDYFGLTYR [EPB41L3] are 2.4 ± 0.13 and 2.55 ± 0.28. The corresponding values for QWIEVDARRLTRFTGVITQGRNSL [CPXM2] are 2.91 ± 0.6 and 2.52 ± 0.17. In the same order, the values of QYQQVPVEIVKSDFHKPFLGGFRH [IQUB] are 2.7 ± 0.36 and 2.99 ± 0.49.

Turning to RAGTEPSDAIRVVNAVLTQIDQIK [TRIP13], the protein stability index came to 3.37 ± 0.15 under setting [1] and 3.04 ± 0.27 under setting [2]. Regarding RAMKIPFTNDKIINLPVEEFNELL [NFE2L1], the protein stability index turned out to be 2.87 ± 0.2 under setting [1] and 3.01 ± 0.67 under setting [2]. The corresponding values for RANPCLSSSNEHAAPAAKTRKQAA [ELOA2] are 5.08 ± 0.16 and 5.18 ± 0.26.
